According to patent US20210100839A1 (CELLECTIS, published 2021):

B1: anti-CD22 CAR9 (prot CAR9) (other)
chain: QVQLQQSGPGLVQPSQTLSLTCVISGDSVSSNSATWNWIRQSPSRGLEWLGRTYYRSKWYNDYAVSVKSRITINPDTSKNQFSLQLNSVTPEDTAVYYCARDGDGGSYYDYYYYGMDVWGQGTTVTVSGGGGSGGGGSGGGGSDIQLTQSPSSLSTSVGDRVTITCRASQSISTYLNWYQQKPGKAPKLLIYAASNLQSGVPSRFSGSGSGTDFTLTISSLQPEDFATYFCQQSYTTPITFGQGTRLEIKTTTPAPRPPTPAPTIASQPLSLRPEACRPAAGGAVHTRGLDFACDIYIWAPLAGTCGVLLLSLVITLYCKRGRKKLLYIFKQPFMRPVQTTQEEDGCSCRFPEEEEGGCELRVKFSRSADAPAYQQGQNQLYNELNLGRREEYDVLDKRRGRDPEMGGKPRRKNPQEGLYNELQKDKMAEAYSEIGMKGERRRGKGHDGLYQGLSTATKDTYDALHMQALPPR
notes: Original clone number 9; Single-chain CAR on T cells; range counted on the printed copy; also called CAR9 7
B2: anti-CD22 CAR7 (prot CAR7) (other)
chain: QVQLQQSGPGLVEPSQTLSLTCAISGDSVSSDSVAWNWIRQSPSRGLEWLGRTYYRSTWYNDYAGSVKSRITINPDTSKNQFSLQLNSVTPEDTAVYYCARDRNGMDVWGQGTMVTVSGGGGSGGGGSGGGGSDIVMTQSPSSLSASVGDRVTITCRASQSISSYLNWYQQKPGKAPKLLIYDASNLETGVPSRFSGSGSGTDFTFTITSLQPEDFATYYCQQSYTTPLTFGGGTKVEIKTTTPAPRPPTPAPTIASQPLSLRPEACRPAAGGAVHTRGLDFACDIYIWAPLAGTCGVLLLSLVITLYCKRGRKKLLYIFKQPFMRPVQTTQEEDGCSCRFPEEEEGGCELRVKFSRSADAPAYQQGQNQLYNELNLGRREEYDVLDKRRGRDPEMGGKPRRKNPQEGLYNELQKDKMAEAYSEIGMKGERRRGKGHDGLYQGLSTATKDTYDALHMQALPPR
notes: Single-chain CAR on T cells; range counted on the printed copy; also called CAR7 5
B3: anti-CD22 CAR8 (prot CAR8) (other)
chain: QVQLQQSGPGLVKPSQTLSLTCAISGDSVSSSSAAWNWIRQSPSRGLEWLGRTYYRSAWYNDYAVSVKSRITINPDTSKNQFSLQLNSVTPEDTAVYYCARESVLLDGMDVWGRGTTVTVSGGGGSGGGGSGGGGSAIRMTQSPSTLSASVGDRVTITCRASQSISTYLNWYQQKAGKAPRLLIHDASSLQSGVPSRFSGSGSGTDFTLTISSLQPEDFATYYCQQSYSTPLTFGGGTKVEIKTTTPAPRPPTPAPTIASQPLSLRPEACRPAAGGAVHTRGLDFACDIYIWAPLAGTCGVLLLSLVITLYCKRGRKKLLYIFKQPFMRPVQTTQEEDGCSCRFPEEEEGGCELRVKFSRSADAPAYQQGQNQLYNELNLGRREEYDVLDKRRGRDPEMGGKPRRKNPQEGLYNELQKDKMAEAYSEIGMKGERRRGKGHDGLYQGLSTATKDTYDALHMQALPPR
notes: Original clone number 8; Single-chain CAR on T cells; range counted on the printed copy; also called CAR8 6
B4: anti-CD22 CAR3 (prot CAR3) (other)
chain: QVQLQQSGPGLVEPSQTLSLTCAISGDSVSSDSVAWNWIRQSPSRGLEWLGRTYYRSTWYNDYAGSVKSRITINPDTSKNQFSLQLTSVTPEDTAVYYCTRSRHNTFRGMDVWGQGTTVTVSGGGGSGGGGSGGGGSDIVMTQSPSSLSASVGDRVTITCRASQTISSYLNWYQQKPGKAPKLLIYDASSLQSGVPSRFSGSGSGTDFTLTINSLQPEDFATYYCQQSYTTPITFGQGTRLEIKTTTPAPRPPTPAPTIASQPLSLRPEACRPAAGGAVHTRGLDFACDIYIWAPLAGTCGVLLLSLVITLYCKRGRKKLLYIFKQPFMRPVQTTQEEDGCSCRFPEEEEGGCELRVKFSRSADAPAYQQGQNQLYNELNLGRREEYDVLDKRRGRDPEMGGKPRRKNPQEGLYNELQKDKMAEAYSEIGMKGERRRGKGHDGLYQGLSTATKDTYDALHMQALPPR
notes: Single-chain CAR on T cells; range counted on the printed copy
B5: anti-CD22 CAR15 (prot CAR15) (other)
chain: QVQLVQSGAEVKKPGASVKVSCKASGYTFTSYYMHWVRQAPGQGLEWMGIINPSGGSTSYAQKFQGRVTMTRDTSTSTVYMELSSLRSEDTAVYYCAREDSGSGAFDIWGQGTLVTVSGGGGSGGGGSGGGGSEIVLTQSPLSLPVTPGEPASISCRSSRSLLSYHGYNYLDWYLQKPGQSPQLLIFVGSNRAPGVPDRFSGSGSGTDFTLNISRVEAEDVGVYYCMQSLQTPRTFGQGTKVEIKTTTPAPRPPTPAPTIASQPLSLRPEACRPAAGGAVHTRGLDFACDIYIWAPLAGTCGVLLLSLVITLYCKRGRKKLLYIFKQPFMRPVQTTQEEDGCSCRFPEEEEGGCELRVKFSRSADAPAYQQGQNQLYNELNLGRREEYDVLDKRRGRDPEMGGKPRRKNPQEGLYNELQKDKMAEAYSEIGMKGERRRGKGHDGLYQGLSTATKDTYDALHMQALPPR
notes: Original clone number 15; Single-chain CAR on T cells; range counted on the printed copy; also called CAR15 10
B6: anti-CD22 CAR2 (prot CAR2) (other)
chain: QVQLQQSGPGLVKPSQTLSLTCAISGDSVSSNSAAWNWIRQSPSRGLEWLGRTYYRSKWYNDYAVSVKSRITINPDTSKNQFSLQLNSVTPEDTAVYYCARASMTGGYSYGDAFDIWGQGTLVTVSGGGGSGGGGSGGGGSAIRMTQSPSSLSASVGDRVTITCRASQSISSYLNWYQQKPGKAPKLLIYAASSLQSGVPSRFSGSGSGTDFSLTISSLQPEDSATYYCQQTYSTPLTFGQGTKVEIKTTTPAPRPPTPAPTIASQPLSLRPEACRPAAGGAVHTRGLDFACDIYIWAPLAGTCGVLLLSLVITLYCKRGRKKLLYIFKQPFMRPVQTTQEEDGCSCRFPEEEEGGCELRVKFSRSADAPAYQQGQNQLYNELNLGRREEYDVLDKRRGRDPEMGGKPRRKNPQEGLYNELQKDKMAEAYSEIGMKGERRRGKGHDGLYQGLSTATKDTYDALHMQALPPR
notes: as for B4

molecular target: T1, recombinant CD22 protein corresponding to the whole extracellular domain of CD22 (human; mouse, UniProt P20273 20-687); test: flow cytometry, CAR T cells stained with recombinant full length CD22 protein
T1 construct: range 20-687; also called full length recombinant CD22 protein; CD22 recombinant protein (full length)
Description: CAR detection at the surface of T-cells is performed using a recombinant protein consisting on the extracellular domain of the human CD22 protein (whole protein, distal portion of CD22 or proximal portion of CD22) fused together with a murine IgG1 Fc fragment. Binding of this protein to the CAR molecule is detected with a PE-conjugated secondary antibody (Jackson Immunoresearch) targeting the mouse Fc portion of the protein, and analyzed by flow cytometry.
Then, CAR positive cells frequency (% of CAR-expressing cells over the total number of cells) was assessed by flow cytometry using a recombinant CD22 protein corresponding to the membrane proximal domain of CD22 or a recombinant CD22 protein corresponding to the whole extracellular domain of CD22 (FIG. 5).

Row | binding result | Binder
1 | binds | B1
2 | binds | B2
3 | binds | B3
4 | binds | B4
5 | binds | B5
6 | binds | B6
